In PMC12796476 (Nature Communications, 2025):
Each block holds one binder with its values, some of them ahead of it.

Tests used:
[1] = target: full-length NEDD4-2-Venus (Homo sapiens, NEDD4L, UniProt Q96PU5, strain); assay: FRET or BRET
[2] = target: Venus-tagged NEDD4-1 HECT domain (HECT4-1-Ven) (Homo sapiens, NEDD4, UniProt P46934); assay: FRET or BRET
[3] = target: WW4-HECT4-2 domain of NEDD4-2, purified (Homo sapiens, NEDD4L (Q96PU5-1), UniProt Q96PU5-1); assay: BLI
Sequence of WW4-HECT4-2 domain of NEDD4-2, purified (Q96PU5 541-975, one chain of several): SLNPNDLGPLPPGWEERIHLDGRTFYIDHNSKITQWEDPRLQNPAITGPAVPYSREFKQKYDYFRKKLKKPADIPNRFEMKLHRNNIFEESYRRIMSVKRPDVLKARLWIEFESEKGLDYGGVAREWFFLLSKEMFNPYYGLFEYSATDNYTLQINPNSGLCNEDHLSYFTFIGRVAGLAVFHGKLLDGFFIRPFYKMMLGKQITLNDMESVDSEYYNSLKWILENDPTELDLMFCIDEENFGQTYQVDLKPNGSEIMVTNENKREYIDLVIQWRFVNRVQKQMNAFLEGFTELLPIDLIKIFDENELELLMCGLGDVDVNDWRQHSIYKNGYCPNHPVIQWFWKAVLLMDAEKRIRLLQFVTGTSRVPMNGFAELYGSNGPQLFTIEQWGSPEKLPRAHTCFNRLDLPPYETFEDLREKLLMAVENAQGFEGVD

Sequence of full-length NEDD4-2-Venus (Q96PU5 whole entry, looked up, change not shown, the tested form may be a part): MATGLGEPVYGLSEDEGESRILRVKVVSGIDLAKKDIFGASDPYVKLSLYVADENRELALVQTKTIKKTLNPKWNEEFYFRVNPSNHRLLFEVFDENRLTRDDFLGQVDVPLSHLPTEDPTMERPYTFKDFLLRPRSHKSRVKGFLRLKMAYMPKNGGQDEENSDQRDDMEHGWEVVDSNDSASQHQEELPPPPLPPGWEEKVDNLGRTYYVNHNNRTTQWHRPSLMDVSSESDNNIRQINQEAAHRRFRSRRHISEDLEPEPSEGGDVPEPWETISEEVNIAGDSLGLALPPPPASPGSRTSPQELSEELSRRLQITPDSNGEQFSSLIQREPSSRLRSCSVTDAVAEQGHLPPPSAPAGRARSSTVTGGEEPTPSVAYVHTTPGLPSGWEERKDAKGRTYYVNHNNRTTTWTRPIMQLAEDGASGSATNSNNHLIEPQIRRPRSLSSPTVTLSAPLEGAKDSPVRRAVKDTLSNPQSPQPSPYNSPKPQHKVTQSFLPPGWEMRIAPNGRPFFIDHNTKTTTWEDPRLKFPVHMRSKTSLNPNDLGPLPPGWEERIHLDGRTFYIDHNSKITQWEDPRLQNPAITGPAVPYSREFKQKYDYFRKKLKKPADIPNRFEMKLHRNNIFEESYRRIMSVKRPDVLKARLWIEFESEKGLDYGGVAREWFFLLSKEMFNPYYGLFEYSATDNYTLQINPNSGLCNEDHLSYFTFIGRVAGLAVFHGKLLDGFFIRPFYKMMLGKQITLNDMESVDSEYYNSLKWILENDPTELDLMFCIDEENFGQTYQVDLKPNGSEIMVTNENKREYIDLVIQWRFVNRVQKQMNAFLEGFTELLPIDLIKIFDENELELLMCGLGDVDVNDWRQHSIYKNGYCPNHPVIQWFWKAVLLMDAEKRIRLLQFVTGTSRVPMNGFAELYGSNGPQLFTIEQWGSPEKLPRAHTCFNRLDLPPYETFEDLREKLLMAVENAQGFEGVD
Sequence of Venus-tagged NEDD4-1 HECT domain (HECT4-1-Ven) (P46934 984-1318): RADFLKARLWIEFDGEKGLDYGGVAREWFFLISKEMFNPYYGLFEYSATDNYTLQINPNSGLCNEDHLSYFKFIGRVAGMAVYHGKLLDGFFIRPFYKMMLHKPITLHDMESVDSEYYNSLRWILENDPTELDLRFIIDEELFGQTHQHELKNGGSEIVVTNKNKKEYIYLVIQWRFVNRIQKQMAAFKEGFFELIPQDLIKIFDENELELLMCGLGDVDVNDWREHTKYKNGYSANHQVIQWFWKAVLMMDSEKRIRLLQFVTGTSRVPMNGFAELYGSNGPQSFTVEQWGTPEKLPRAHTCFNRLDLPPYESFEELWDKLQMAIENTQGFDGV

- binding result [1]: binds
- binding result [2]: no binding
B1: Cer-nb.C11 (VHH)
VHH: QVQLQESGGGLVQAGGSLRLSCAASGNISDVWYMGWYRQAPGKEREFVAGIAYGTSTYYADSVKGRFTISRDNAKNTVYLQMNSLKPEDTAVYYCAVIITRFVSYPRQHTYWGQGTQVTVSS

- Kd [3]: 2 nM
B2: nb.C11 (HIS-tagged, purified) (VHH)
VHH: B1 VHH
